The term Kd denotes the constant that tells how readily two partners part at equilibrium. Lower therefore signals higher affinity.

Test [1] has as its target T1, BCL6^BTB (residues 5-129; C8Q, C67R, C84N), tags cleaved (pSG219C) (human, UniProt P41182 5-129, C8Q | C67R | C84N). Nature of the test: ITC; BCL6 binding to p300:TCIP3 binary complex (ternary, alpha 13). For orientation: Isothermal titration calorimetry measures the heat released or taken up as one component is titrated into another.
In test [2] the target is T1, BCL6^BTB (residues 5-129; C8Q, C67R, …). The test is described as follows: ITC; p300 binding to BCL6:TCIP3 binary complex (ternary, alpha 3.5).

B1: 6xHis-p300^BD (p300 bromodomain) (domain or fragment)
chain: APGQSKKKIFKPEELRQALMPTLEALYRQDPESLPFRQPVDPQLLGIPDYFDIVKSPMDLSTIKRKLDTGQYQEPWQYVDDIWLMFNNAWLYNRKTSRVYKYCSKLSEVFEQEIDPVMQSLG
For the molecule B1, the dissociation constant Kd in test [1] worked out at 19.8 nM; in test [2] it was 2.37 nM.
